The values below come from article PMC4786428, “Recombinational branch migration by the RadA/Sms paralog of RecA in Escherichia coli”.

Data set [1] concerns the target T1, RadA (Sms) wild type (Escherichia coli, UniProt P24554 1-460).
T1 sequence: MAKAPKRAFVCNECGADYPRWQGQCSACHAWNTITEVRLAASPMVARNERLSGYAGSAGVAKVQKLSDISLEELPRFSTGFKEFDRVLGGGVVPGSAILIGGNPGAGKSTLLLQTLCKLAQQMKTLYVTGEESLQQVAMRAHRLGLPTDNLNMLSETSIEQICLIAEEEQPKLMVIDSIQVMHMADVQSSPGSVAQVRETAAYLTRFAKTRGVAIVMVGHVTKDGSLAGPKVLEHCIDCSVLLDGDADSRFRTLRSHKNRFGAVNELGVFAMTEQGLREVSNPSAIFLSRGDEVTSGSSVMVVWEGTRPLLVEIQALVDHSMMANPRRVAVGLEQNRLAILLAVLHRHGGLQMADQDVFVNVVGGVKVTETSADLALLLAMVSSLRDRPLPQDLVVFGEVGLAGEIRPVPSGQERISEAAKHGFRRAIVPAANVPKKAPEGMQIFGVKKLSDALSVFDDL
Description: competition; unlabeled competitor vs labeled poly(dT)30, 1 mM ADP; 50 mM Tris-HCl pH 7.5, 10 mM MgCl2, 0.1 mM EDTA, 75 mM NaCl, 5 mM DTT, 100 ug/ml BSA, 1 mM nucleotide, 100 fmol DNA, 37 C for 20-30 min; 6% TBE polyacrylamide gel at room temperature. The following applies: protein: recombinant; tags: eXact tag cleaved; 2 extra N-terminal residues Thr-Ser remain; chain copies: 6.

The target of data set [2] is T1, RadA (Sms) wild type. Description: EMSA; 1 mM ADP (standard); apparent; Hill coefficient 1.5; 50 mM Tris-HCl pH 7.5, 10 mM MgCl2, 0.1 mM EDTA, 75 mM NaCl, 5 mM DTT, 100 ug/ml BSA, 1 mM nucleotide, 100 fmol DNA, 37 C for 20-30 min; 6% TBE polyacrylamide gel at room temperature. The conditions noted are these: protein: recombinant; tags: eXact tag cleaved; 2 extra N-terminal residues Thr-Ser remain; chain copies: 6.

For AAAAAAAAAAAAAAAAAAAAAAAAAAAAAAAAA (ssDNA) [poly(dA)33], in the data set with RadA (Sms) wild type [1], the binding result is recorded as “no binding”.

As for TTTTTTTTTTTTTTTTTTTTTTTTTTTTTT (ssDNA) [poly(dT)30], the Kd in the data set with RadA (Sms) wild type [2] was found to be 110 ± 14 nM.
